Experimental data published in publication PMC5811048, “Application of the SSB biosensor to study in vitro transcription”.

Key:
MDCC-SSB [1] = molecular target: T1, MDCC-SSB (UniProt P0AGE0 1-178, G27C); test: MDCC fluorescence spectra; excess ssDNA70; 3 mM MgCl2; 50 mM Tris-HCl pH 7.5, 3 mM MgCl2, 100 mM (or 200 mM) NaCl; MDCC titrations 25 C; EMSA room temperature, 20 min; settings: protein: recombinant; tags: pET151 vector, His tag (HisTrap purified); MDCC label (at C26, implied); chain copies: 4; single strand
MDCC-SSB [2] = molecular target: T1, MDCC-SSB; test: MDCC fluorescence spectra; excess ssRNA70; 3 mM MgCl2; 50 mM Tris-HCl pH 7.5, 3 mM MgCl2, 100 mM (or 200 mM) NaCl; MDCC titrations 25 C; EMSA room temperature, 20 min; settings: protein: recombinant; tags: pET151 vector, His tag (HisTrap purified); MDCC label (at C26, implied); chain copies: 4; single strand

T1 sequence (P0AGE0 whole entry G27C): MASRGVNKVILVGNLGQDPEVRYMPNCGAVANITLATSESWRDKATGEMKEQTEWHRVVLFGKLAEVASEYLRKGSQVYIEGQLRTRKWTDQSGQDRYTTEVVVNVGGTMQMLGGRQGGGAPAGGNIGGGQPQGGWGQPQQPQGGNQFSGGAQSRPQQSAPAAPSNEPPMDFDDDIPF

B1: ssDNA70 (dT70) (ssDNA)
DNA: TTTTTTTTTTTTTTTTTTTTTTTTTTTTTTTTTTTTTTTTTTTTTTTTTTTTTTTTTTTTTTTTTTTTTT
binding signal (MDCC-SSB [1]): 1.9 fold fluorescence increase

B2: ssRNA70 (ssRNA)
RNA: UUAGUUGUUCGUAGUGCUCGUCUGGCUCUGGAUUACCCGCUUAGUUGUUCGUAGUGCUCGUCUGGCUCUG
binding signal (MDCC-SSB [2]): 2.1 fold fluorescence increase
